Drawing on patent US20070202045A1, this text covers IC50 for one substance.

Usually IC50 stands for the concentration at which inhibition is half-maximal. Lower therefore signals greater potency in that assay.

The assay addresses Rabbit SA (rabbit) (UniProt P49065). The assay can be described thus: competition ELISA (SA08b binding to rabbit albumin). For orientation: In an ELISA, binding on a coated surface is turned into a signal by an enzyme label.

Sequence of Rabbit SA (rabbit) (P49065 25-608): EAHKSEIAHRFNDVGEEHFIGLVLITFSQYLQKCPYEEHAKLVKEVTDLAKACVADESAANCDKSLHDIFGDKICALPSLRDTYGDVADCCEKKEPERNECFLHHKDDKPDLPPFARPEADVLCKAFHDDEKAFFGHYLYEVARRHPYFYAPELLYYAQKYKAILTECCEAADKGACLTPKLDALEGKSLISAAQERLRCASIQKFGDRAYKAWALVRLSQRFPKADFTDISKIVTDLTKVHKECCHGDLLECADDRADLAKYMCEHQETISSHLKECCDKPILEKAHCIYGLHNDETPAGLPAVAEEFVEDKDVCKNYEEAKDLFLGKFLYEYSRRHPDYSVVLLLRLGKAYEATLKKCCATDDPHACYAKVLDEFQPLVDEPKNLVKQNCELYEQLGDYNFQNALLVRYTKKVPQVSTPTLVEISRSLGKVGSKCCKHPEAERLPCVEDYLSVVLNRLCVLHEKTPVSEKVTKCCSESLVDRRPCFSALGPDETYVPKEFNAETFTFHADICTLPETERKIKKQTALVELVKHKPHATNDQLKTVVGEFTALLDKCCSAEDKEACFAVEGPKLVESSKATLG

Substance dia4D5 yielded an IC50 of 10 nM.
